Experiments:
Assay in all cases: cell-based or functional assay
[1] = target: T1, human complement component C3 (human, UniProt P01024 23-1663)
[2] = target: T1, human complement component C3; remark: listed apart in the source
[3] = target: T1, human complement component C3; remark: listed apart in the source
[4] = target: T1, human complement component C3; remark: listed apart in the source

B1: CA28-AEEAc-Lys(mPEG40K-carbonyl) (peptide)
peptide: ICVWQDWGAHRCTK
modifications: not fully specified; N-terminal acetyl; 1-methyl-Trp at position 4; disulfide Cys2-Cys12; AEEAc spacer between Thr13 and Lys; C-terminal amide; linear 40 kD mPEG (NOF ME-400TS) on the Lys side chain
[1]
  IC50 (read off the curve), inhibition of classical pathway complement activation (C3b deposition ELISA): ~600 nM

B2: (CA28-AEEAc)8-PEG40k (peptide)
peptide: ICVWQDWGAHRCTK
modifications: N-terminal acetyl; 1-methyl-Trp at position 4; disulfide Cys2-Cys12; AEEAc spacer between Thr13 and Lys; C-terminal amide; Lys side chain coupled to an arm of an eight-arm 40 kD PEG (NOF HGEO-400GS)
[2]
  IC50 on a molar basis (corrected for 7.5 CA28 moieties per molecule), classical complement inhibition assay: ~260 nM
[3]
  IC50, classical complement inhibition assay (C3b deposition ELISA, human plasma), as a function of CA28 moiety concentration: 1930 nM

B3: CA28-AEEAc-Lys-(PEG30k) (peptide)
peptide: ICVWQDWGAHRCTK
modifications: not fully specified; N-terminal acetyl; 1-methyl-Trp at position 4; disulfide Cys2-Cys12; AEEAc (8-amino-3,6-dioxaoctanoyl) spacer between Thr13 and Lys; C-terminal amide; linear monofunctional 30 kD PEG (NOF ME-300GS) on the Lys side …
[3]
  IC50, classical complement inhibition assay (C3b deposition ELISA, human plasma): 1260 nM

B4: CA28-AEEAc-Lys(mPEG40K-succinyl) (peptide)
peptide: ICVWQDWGAHRCTK
modifications: N-terminal acetyl; 1-methyl-Trp at position 4; disulfide Cys2-Cys12; AEEAc spacer between Thr13 and Lys; C-terminal amide; linear 40 kD mPEG (NOF ME-400CS) on the Lys side chain
[1]
  IC50 (read off the curve), inhibition of classical pathway complement activation (C3b deposition ELISA): ~700 nM

B5: CA28-2GS-BF (bifunctionalized PEG-based compstatin analog, GS type) (peptide)
peptide: ICVWQDWGAHRCTK
modifications: not fully specified; N-terminal acetyl; 1-methyl-Trp at position 4; disulfide Cys2-Cys12; AEEAc spacer between Thr13 and Lys; C-terminal amide; Lys side chain coupled to one end of a linear bifunctional 40 kD PEG (glutaryl, GS type; amide plus ester linkage)
[4]
  % Parent in Q1 (Type III cells with high C3d), modified Ham's test, 50 ug/ml: 0.01%
  % Parent in Q2 (Type I and II cells with high C3d), modified Ham's test, 50 ug/ml: 0.01%
  % Parent in Q3 (Type III cells without significant C3d), modified Ham's test, 50 ug/ml: 61.5%
  % Parent in Q4 (Type I and II cells without significant C3d), modified Ham's test, 50 ug/ml: 38.5%

B6: CA28-AEEAc-Lys(mPEG40K-hexanoyl) (peptide)
peptide: ICVWQDWGAHRCTK
modifications: N-terminal acetyl; 1-methyl-Trp at position 4; disulfide Cys2-Cys12; AEEAc spacer between Thr13 and Lys; C-terminal amide; linear 40 kD mPEG (NOF ME-400HS) on the Lys side chain
[1]
  IC50 (read off the curve), inhibition of classical pathway complement activation (C3b deposition ELISA): ~700 nM

B7: CA28-AEEAc-Lys-(PEG40k) (peptide)
peptide: ICVWQDWGAHRCTK
modifications: not fully specified; N-terminal acetyl; 1-methyl-Trp at position 4; disulfide Cys2-Cys12; AEEAc spacer between Thr13 and Lys; C-terminal amide; linear monofunctional 40 kD mPEG (NOF ME-400GS) on the Lys side chain
[3]
  IC50, classical complement inhibition assay (C3b deposition ELISA, human plasma): 1290 nM
[1]
  IC50 (read off the curve), inhibition of classical pathway complement activation (C3b deposition ELISA): ~600 nM

— patent publication US20200316163A1 (APELLIS PHARMACEUTICALS, published 2020)
